Experiment [1] concerns the target FLAG-tagged wild-type central Reelin fragment (Reelin repeats 3–6), Fc removed (UniProt Q60841). In words: SEC; Superose 6 Increase 10/300 GL, A280 traces of heterodimer, FLAG-WT homodimer and His6-K2467A homodimer.
Experiment [2] concerns the target His6-tagged K2467A mutant central Reelin fragment (Reelin repeats 3–6), Fc removed (UniProt Q60841). The description is as above.
The target in experiment [3] is Fc-fused Reelin heterodimer (FLAG-WT / His6-K2467A central fragment, Fc retained) (UniProt Q60841). In words: BLI; BLItz; Fc-fused heterodimer on a Protein A biosensor; dilution series (11 concentrations) of ecto-VLDLR; 20 mM Hepes pH 7.4, 150 mM NaCl, 1 mM CaCl2, 0.2% Tween20, 0.1% BSA; association 45 s, dissociation 60 s without CaCl2 and with 1 mM EDTA; maximum responses fitted to one site specific binding; triplicate. On the technique in general: BLI is a label-free optical method that tracks binding on a fibre tip over time.

Usually stoichiometry N stands for the number of molecules, sites or subunits per partner or assembly. As for “FLAG-tagged wild-type central Reelin fragment (Reelin repeats 3–6), Fc removed (from UniProt Q60841 27-3461) (domain or fragment)”, in experiment [1], the stoichiometry N came out at 2. In the case of “His6-tagged K2467A mutant central Reelin fragment (Reelin repeats 3–6), Fc removed (from UniProt Q60841 27-3461) (domain or fragment)”, the stoichiometry N in experiment [2] was determined as 2. By Kd is commonly meant the concentration at which binding is half-saturated. The low end stands for higher affinity, the high end for lower affinity. As for “purified extracellular domain of VLDLR (very-low density lipoprotein receptor) (from UniProt P98155 28-797)”, the Kd in experiment [3] stood at 129 nM.

(Values after PMC7701066.)
